Assay results as given in patent publication US10736933B2, “Peptide-induced NK cell activation” (priority 2015, dated 2020).

Legend:
HLA-Cw*0102 = HLA-Cw*0102 (Homo sapiens, UniProt P10321, A176E/A330V/A35S/A97T/C350S/D114A/D33F/L171W/L180R/L218V/M285V/M309V/M331V/P208H/Q277E/Q291P/R121W/R243W/R30K/S123C/S140Y/S297R/T329A/T363A/V272M/V319A); test: Peptide binding to HLA-Cw*0102 on L721.174 cells (cell surface MHC class I, flow cytometry); assay type: cell-based; settings: increasing concentrations of peptide, overnight at 26° C.
Method: The HLA-Cw*0102-positive cell line L721.174 was incubated with increasing concentrations of the LNPSVAATL (SEQ ID NO: 5) peptide or a control peptide VAPWNSLSL (SEQ ID NO: 11). Cells were stained for cell surface of MHC class I and analysed by flow cytometry. The mean fluorescence intensity of cell surface MHC Class I was plotted against the peptide concentration.
The HLA-Cw*0102 • positive cell line L721.174 was incubated with increasing concentrations of the peptides IVDLMCHATF (SEQ ID NO: 1); VIDAMCHATL (SEQ ID NO: 2); AANVMAASL (SEQ ID NO: 3); and FLSDVPVATL (SEQ ID NO: 4) or a control peptide […]. Cells were stained for cell surface of MHC class I and analysed by flow cytometry. The mean fluorescence intensity of cell surface MHC Class I was plotted against the peptide concentration.
3×10^5 cells were used per condition. Following washing in PBS the cells were stained for cell surface of MHC class I and analysed by flow cytometry. The mean fluorescence intensity of cell surface MHC Class I was plotted against the peptide concentration.
With reference to FIG. 12, the HLA-Cw*0102-positive cell line L721.174 was incubated with increasing concentrations of the peptides IVDLMCHATF (SEQ ID NO: 1), VIDAMCHATL (SEQ ID NO: 2), AANVMAASL (SEQ ID NO: 3); and FLSDVPVATL (SEQ ID NO: 4) overnight at 26° C. 3×10^5 cells were used per condition. Following washing in PBS the cells were stained for cell surface of MHC class I and analysed by flow cytometry. The mean fluorescence intensity of cell surface MHC Class I was plotted against the peptide concentration.

[1] = tested on: NKL cell line transfected with KIR2DS2; test: Vav1 phosphorylation (pVav1 Western blot) in NKL cells transfected with KIR2DS2; assay type: cell-based; settings: L721.174 (HLA-Cw*0102) cells loaded with peptide; KIR2DS2-transfected NKL, 5 minutes
Method: A. L721.174 cells were incubated with indicated peptides. The cells were then incubated with the NK cell line transfected with KIR2DS2. The cells were lysed and the KIR2DS2 was then immunoprecipitated from the mixture using the GL183 antibody coupled to protein-G beads. The immune precipitate was analysed by Western blotting using a phosphotyrosine antibody. The membrane was then stripped and reprobed with an antibody to DAP12 the molecule that transduces a positive signal from KIR2DS2. Shown are the regions on the blots at the level of DAP12 (12-15 kDa). B. L721.174 cells were incubated with indicated peptides. The cells were then incubated with the NK cell line transfected with KIR2DS2 or transfected with KIR2DL2. The cells were lysed in 1% NP-40 and then analysed by Western blotting using antibodies to pVav1 and then following stripping of the membrane to Vav1. Shown are Western blots around the 98 kDa region, and below them the corresponding densitometries for 3 independent experiments.
FIG. 7 1×10^6 L721.221-HLA-C*0304-ICP47 cells were incubated overnight at 26° C. with indicated peptides at a concentration of […]. The cells were then incubated with the NKL cell line transfected with KIR2DS2 or transfected with KIR2DL2 for 5 minutes. The cells were lysed in 1% NP-40 and then analysed by Western blotting using antibodies to pVav1 and then following stripping of the membrane to Vav1. Shown are Western blots around the 98 kDa region, and below them the corresponding densitometries for 2 independent experiments.
FIG. 14—The Dengue virus peptide IVDLMCHATF (SEQ ID NO: 1) activates KIR2DS2 positive NK cells. 174 cells were incubated with the IVDLMCHATF (SEQ ID NO: 1) and then KIR2DS2-positive transfected NKL cells or KIR2DL2-positve transfected NKL cells. Activation of NK cells was assessed by western blotting for phosphorylated Vav1, and compared to total Vav1.
With reference to FIG. 6A, 1×10^6 L721.174 cells were incubated overnight at 26° C. with indicated peptides at a concentration of […]. The cells were then incubated with the NK cell line transfected with KIR2DS2 for 5 minutes. The cells were lysed in 1% digitonin buffer and the KIR2DS2 was then immunoprecipitated from the mixture using the GL183 antibody coupled to protein-G beads. The immune precipitate was analysed by Western blotting using a phosphotyrosine antibody. […] The cells were lysed in 1% NP-40 and then analysed by Western blotting using antibodies to pVav1 and then following stripping of the membrane to Vav1. […]
With reference to FIG. 7, 1×10^6 HLA-C*0304:ICP47:721.221 cells were incubated overnight at 26° C. with indicated peptides at a concentration of […]. […] The cells were lysed in 1% NP-40 and then analysed by Western blotting using antibodies to pVav1 and then following stripping of the membrane to Vav1. […]

| Sequence | binding to HLA-Cw*0102 (mean fluorescence intensity of cell surface MHC Class I) (HLA-Cw*0102) | activation of NK cells (phosphorylated Vav1 compared to total Vav1) [1] |
| --- | --- | --- |
| IVDLMCHATF [Dengue virus peptide] | bind HLA-Cw*0102 | activated KIR2DS2 |
| LNPSVAATL [peptide recognized by KIR2DS2-positive NK cells] | binds HLA-Cw*0102 | activates NK cells expressing KIR2DS2 |
